According to patent publication US20220119459A1 (OXFORD UNIVERSITY INNOVATION, published 2022):

How the values were obtained:
[1] = molecular target: SpyCatcher002; assay: 0.5 µM each, PBS pH 7.5, 25 °C, SDS-PAGE with Coomassie staining (FIG. 15A)
[2] = molecular target: T1, AP-SpyTag002-MBP; assay: 0.5 µM each, PBS pH 7.5, 25 °C, SDS-PAGE with Coomassie staining (FIG. 16)
T1 construct: not shown: AP peptide tag for site-specific biotinylation; only primer DNA is printed for it

SpyCatcher002, sequence (chain, as listed by the source): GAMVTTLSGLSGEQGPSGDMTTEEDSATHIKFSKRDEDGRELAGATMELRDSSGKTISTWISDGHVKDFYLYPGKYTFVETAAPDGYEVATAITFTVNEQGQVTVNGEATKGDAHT

Molecule | percent increase in activity against SpyTag002 (SEQ ID NO: 3) [1] | reaction rate (second-order rate constant) [2]
SpyTag002 T3H-MBP | 35% | –
SpyCatcher002 D5A variant with proline at position 92 and aspartic acid at position 100 (SEQ ID NO:47) (designed binder) GAMVATLSGLSGEQGPSGDMTTEEDSATHIKFSKRDEDGRELAGATMELRDSSGKTISTWISDGHVKDFYLYPGKYTFVETAAPDGYEVATPITFTVNEDGQVTVNGEATKGDAHT | – | 20300 M⁻¹ s⁻¹
SpyCatcher002 D5A variant with proline at position 92 (SEQ ID NO:45) (designed binder) GAMVATLSGLSGEQGPSGDMTTEEDSATHIKFSKRDEDGRELAGATMELRDSSGKTISTWISDGHVKDFYLYPGKYTFVETAAPDGYEVATPITFTVNEQGQVTVNGEATKGDAHT | – | 14000 M⁻¹ s⁻¹
SpyCatcher002 D5A variant with aspartic acid at position 100 (SEQ ID NO:46) (designed binder) GAMVATLSGLSGEQGPSGDMTTEEDSATHIKFSKRDEDGRELAGATMELRDSSGKTISTWISDGHVKDFYLYPGKYTFVETAAPDGYEVATAITFTVNEDGQVTVNGEATKGDAHT | – | 15500 M⁻¹ s⁻¹
